A short description of the data set: label from the status in PepcDB records.

We go through 20 sequences from a protein production outcome set (Wang et al. 2014).

For the sequence “SSSDVVTLTVGATPSPHAKILTYINDNLAADAGIKLDIVEYTDYVQPNTALNDGDLDANFYQTVPYLENAEKQFGYNFEAGEGIHLEPLGVFSNKHKSLDELPDGGTIGIISDTANQSRALELLATQGLVSIPEGDGDVNINTVTKLKNFDFREVEGPQLVRSLDDFDYAVINGNFAQEGGKTISGDALVVESPVDNPAVNVLVWKGDSKKVDAIAKLEKLLHSDEVKQYIEKTWSDGSVIPAF”, the protein production result is “not failed”.

Consider “SSSSSSVPAYLGDEDLTQETRALISSLPKEKGWLVSEIYEFQGLWHTQAILQGILICQKRFEAKDSDIILVTNPKSGTTWLKALVFALLNRHKFPVSSSGNHPLLVTNPHLLVPFLEGVYYESPDFDFSSLPSPRLMNTHISHLSLPESVKSSSCKIVYCCRNPKDMFVSLWHFGKKLAPEETADYPIEKAVEAFCEGKFIGGPFWDHILEYWYASRENPNKVLFVTYEELKKQTEVEMKRIAEFLECGFIEEEEVREIVKLCSFESLSNLEVNKEGKLPNGIETKTFFRKGEIGGWRDTLSESLAEEIDRTIEEKFKGSGLKFSS”, for which the protein production result is “not failed”.

For the sequence “SSTQGWADGLLTDIAHVRAHISDEFLFSSASTLNEIALAADIEERTQSVDVFLGNSLFVRLVDMFGRLNTEVFTNRGASGIDGLFATASGVQRSRGKPLLMYIGDTSALYDLNSLALFSRNDLPSVLVVTNNDGGAIFDMLPVPQEHRTAYYQMPHGYQFEHAAKQFGLKYEKPTTLQMYQAMVADHLSSGQGTMLVEVQTPPSQAAELIKAFNKSLHASL”, the protein production entry is on record as “failed”.

Regarding “STAFFFRRMSPADKRKLLDELRSIYRTIVLEYFNTDAKVNERIDEFVSKAFFADISVSQVLEIHVELMDTFSKQLKLEGRSEDILLDYRLTLIDVIAHLCEMYRRSIPREV”, the protein production result was “not failed”.

Turning to “STFYVEFNRKDSDKTLAKAFQNKKIRQALSLAINRKSYVNNTLGNGSTVSKGYVSEDLAKNPTTGKDFTTDAAVPSAVDYNLTKAKKLWKEGLKEIGETKLNIKLLSDDTDAGKKATEFIQGGWEKLPGLTVTNQNVPFKTRLQRSQNGNFDTVISAWNADFTDPISFLSLFTSDNSYNNGKYDSAAYDDAVKKAEGADANNKTARWADMVAAEKQLMNDQGVIPIYQQASATLTRSNLKGIIYNTAGSNYNFKYMSVK”, the protein production entry is “failed”.

With “STVVEIKSQDQFTQLTTTNAANKLIVLYFKAQWADPCKTMSQVLEAVSEKVRQEDVRFLSIDADEHPEISDLFEIAAVPYFVFIQNGTIVKEISAADPKEFVKSLEILSNASASLANNAKGPKSTSDEESSGSSDDEEDETEEEINARLVKLVQAAPVMLFMKGSPSEPKCGFSRQLVGILREHQIRFGFFDILRDENVRQSLKKFSDWPTFPQLYINGEFQGGLDIIKESIEEDPEYFQHALQ”, the protein production entry was “not failed”.

For the sequence “SVICCAAVNCSNRQGKGEKRAVSFHRFPLKDSKRLIQWLKAVQRDNWTPTKYSFLCSEHFTKDSFSKRLEDQHRLLKPTAVPSIFHLTEKKRGAGGHGRTRRKDASKATGGVRGHSSAATGRGAAGWSPSSSGNPMAKPESRRLKQAALQGEATPRAAQEAASQEQAQQALERTPGDGLATMVAGSQGKAEASATDAGDESATSSIEGGVTDKSGISMDDFTPPGSGACKFIGSLHSYSFSSKHTRERPSVPREPIDRKRLKKDVEPSCSGSSLGPDKGLAQSPPSSSLTATPQKPSQSPSAPPADVTPKPATEAVQSEHSDASPMSINEVILSASGACKLIDSLHSYCFSSRQNKSQVCCLREQVEKKNGELKSLRQRVSRSDSQVRKLQEKLDELRRVSVPYPSSLLSPSREPPKMNPVVEPLSWMLGTWLSDPPGAGTYPTLQPFQYLEEVHISHVGQPMLNFSFNSFHPDTRKPMHRECGFIRLKPDTNKVAFVSAQNTGVVEVEEGEVNGQELCIASHSIARISFAKEPHVEQITRKFRLNSEGKLEQTVSMATTTQPMTQHLHVTYKKVTP”, the protein production result was “not failed”.

Turning to “SVSLVGPAPWGFRLQGGKDFNMPLTISSLKDGGKASQAHVRIGDVVLSIDGISAQGMTHLEAQNKIKACTGSLNMTLQRASAAAKSEPVS”, the protein production entry is reported as “not failed”.

Turning to “SVTFSYLAETDYPVFTLGGSTADAARRLAASGCACAPVLDGERYLGMVHLSRLLEGRKGWPTVKEKLGEELLETVRSYRPGEQLFDNLISVAAAKCSVVPLADEDGRYEGVVSRKRILGFLAERI”, the protein production entry is listed as “not failed”.

As to “SYASETASTQGLPALELDPEELLAQVQLLRAAVEGSRRESRELVGALERERRLNLEMRQRFERQFAAVSDQLLQLNHLQKESEALLQSLQEQLNEAELQKNAAQRELACVQRQLSLARAEADAGKRVLTTIAEKEALLRKTSQANADLQQIVMHLQAELRNSELQPSTSNASEERLHEAEIPSLADRDAYQTLQQTIEKLSAERDMWYHECARAKEESLRLQQDAERLRGLLDEQQRVHTTTQTLLQDRHLLMRRIIAALAEKYLMEKLPNQHYTQEIDSSPFQARGGTSVQEAHKHERLRRARSF”, the protein production result was “not failed”.

Turning to “SYMYDRDGSLVSEIVSDHENRVLVPFNKIPEEVKQIFLTSEDRHFYEHKGFDFMGMVPPTASNVKDKKIDQGASTITQQLSRNLYLSHERSFSRKLTELAYSYQLEKKYTKNEILEAYLNTIYFNNGVYGVGSAAQFYFSKPLKSLTVGEMAFICAIPNNPTLYDPLKHF”, the protein production result is “failed”.

As for “TAALSGAANLGAPLSNDFCTISLSDKWRGWDEIEEKLRAAAISGFVVVLYNCWRDYERAVDVLREERADDVPAAIVNDSGRGEAGRNLDDETETITTLGELPEHDDKVGGMGSSIVVGTHETEV”, the protein production entry is reported as “failed”.

As to “TAQLTIEAVPSNAAEGKEVLLLVHNLPQDPRGYNWYKGETVDANRRIIGYVISNQQITPGPAYSNRETIYPNASLLMRNVTRNDTGSYTLQVIKLNLMSEEVTGQFSVHPETPKPSI”, the protein production result is on record as “not failed”.

As to “TATLILDDGLAIRYANPAAELLFSQSAKRIVEQSLSQLIQHASLDLALLTQPLQSGQSITDSDVTFVVDGRPLMLEVTVSPITWQRQLMLLVEMRK”, the protein production result is recorded as “not failed”.

Regarding “TDVSSWIVYPSGKVYVAAVRLERVVLTCELCRPWAEVRWTKDGEEVVESPALLLQKEDTVRRLVLPAVQLEDSGEYLCEIDDESASFTVTVTEPPVRIIY”, the protein production entry was “not failed”.

With “TEASSLVGKLETDVEIKASADKFHHMFAGKPHHVSKASPGNIQGCDLHEGDWGTVGSIVFWNYVHDGEAKVAKERIEAVEPDKNLITFRVIEGDLMKEYKSFLLTIQVTPKPGGPGSIVHWHLEYEKISEEVAHPETLLQFCVEVSKEIDEHLLAEE”, the protein production entry is given as “not failed”.

Regarding “TEETAKVVPMAVITPAINQLTDQEKAEGWALLFDGKTTKGWRGAHKDAFPDHGWMVKDGELIVQKSDGSESTNGGDIVTEGEYSAFEFSVDFKITEGANSGIKYFVTEQEKQKGSAYGLEFQLLDDAKHPDAKLYTTFPGSRTLGSLYDLKKSENIHFNGVGEWNTAVVKVFPNNHVEHWLNGVKVLEYERGSKEFRDLVKGSKYADPSYNAGGAFGEAPKGHILLQDHGDEVAFRNIKVKELK”, the protein production result is “not failed”.

Take “TFYSVRMRASMNGSHEDGGKHISGGERLIPFHEMKHTVNALLEKGLSHSRGKPDFMQIQFEEVHESIKTIQPLPVHTNEVSCPEEGQKLARLLLEKEGVSRDVIEKAYEQIPEWSDVRGAVLFDIHTGKRMDQTKEKGVRVSRMDWPDANFEKWALHSHVPAHSRIKEALALASKVSRHPAVVAELCWSDDPDYITGYVAGKKMGYQRITAMKEYGTEEGCRVFFIDGSNDVNTYIHDLEKQPILIE”: the protein production result is given as “not failed”.

Consider “TGEPGASDLESRNNRLQLALQLNQRTQQEQLEHLERVRGQQDLILRLARHRYSAGNSLLEAAQLITQSACEIYKVDCASIWHLEDQRLEPIIAWYRDAQEHRQPEAIDASRFPDYLDALHASRAIDAHNAGHDPRTRALAQSMRPENKAMLDASIRVDGQVIGVLCLEQSGQPRAWQSDEIAFAGELADQFAQVITNHKRRAAASALHLFQRAVEQSA”, for which the protein production result is given as “failed”.

Consider “TGQDAYGQVTEMQYVVYAFSKVETIFSDMYAFAALKTDGSVVTWGYSDYGGDSSSVAGQLTSGVKVIDSTSSAFAAIKEDGSVVTWGDSPYGGDSSSVAGKLTSGVKVIYSNSSAFAAVKQDGSVVTWGSYGGDSSSVAGQLTSGVKVIYSTDSEFGAFAAVKEDGSVVTWGNSPYGGDSSSVAGQLTSGVKVIYSTNNAFAAVKEDGSVVTWGDSGAGGDSSSVAGQLT”, for which the protein production result is reported as “failed”.
